Here are results for five molecules from patent publication US7387779B2, “Anti-angiogenic proteins and fragments and methods of use thereof” (Beth Israel Deaconess Medical Center, priority 1998, dated 2008).

One assay has as its system HUVECs. Briefly: Total protein synthesis, 35S-methionine incorporation. It counts as cell-based, human. Conditions: 4.5 μM; 24 hours of serum stimulation; rapamycin 100 ng/ml. As for the experimental part:
Primary human renal epithelial cells (HRE) were purchased from Clonetics (San Diego, Calif., USA) and were maintained in REGM (Clonetics Corp.). Other cell lines were obtained and maintained as described above. Cells were serum-starved for 24 hrs (0.5% FCS), stimulated with 10% FCS in the presence of T3 peptide, Tumstatin-44-131, endostatin or rapamycin for 12-24 hours. After pre-incubation of cells in methionine-free media for 1 hour, cells were labeled with ^35S-methionine for 1 hour and incorporation of radioactivity into trichloracetic acid precipitates was analyzed (Sudhakar, A. et al., 2000, Biochem. 39:12929-38; Maeshima, Y. et al., 1996, J. Amer. Soc. Nephrol. 7:2219-29). ANOVA with a one-tailed Student's t test was used to identify significant differences in multiple comparisons in the present study. A level of P<0.05 was considered statistically significant.

The subject of the next assay is PC-3 tumors. Briefly: PC-3 xenograft in athymic nude NCRNU mice (Example 46). The class given is in vivo. As for the experimental part: Tumstatin-44-131 was also tested for its ability to suppress tumor growth. Male athymic nude NCRNU mice, of 5-6 weeks of age and about 25 g, were implanted with […] approximately 2×10^6 PC-3 (prostate cancer carcinoma) cells into the dorsal subcutis. […] The tumors were allowed to grow to about 50 mm^3, and animals were then pair-matched into groups of 6 mice. Initial doses of protein or vehicle (PBS, control) were given on the day of pair-matching (Day 1). Tumstatin-44-131, Tum-5-125-C-A, or human endostatin in sterile PBS was intraperitoneally injected daily b.i.d. at doses ranging from 1 to 20 mg/kg for 20 days. Control animals received injection of PBS vehicle. In one treatment, continuous subcutaneous delivery of Tumstatin-44-131 was done using surgically implanted Alzet mini-pumps. The mice were weighed twice weekly, and tumor measurements were taken, starting on Day 1. Estimated mean tumor volumes were calculated, and at Day 21, the mice were weighed, sacrificed, and their tumors excised and examined by light microscopy and CD31 immunostaining. The mean treated tumor weight was divided by the mean control tumor weight was subtracted from one, and expressed as a percentage to give the tumor growth inhibition for each group.

The test system of another assay is Caspase-3 in C-PAE cells. Briefly: Caspase-3 assay. Conditions: 20 μg/ml Tumstatin; TNF-α positive control. The class given is cell-based, bovine.
Another assay deals with WM-164 cells. Briefly: MTT cell viability assay. It counts as cell-based, human. From the text:
The MTT assay was used to evaluate cell viability in C-PAE endothelial cells and WM-164 melanoma cells after treatment with Tumstatin, Tum-1, Tum-2, Tum-3 and Tum-4. The results are shown in FIGS. 34A and 34B, which are a pair of graphs showing the effect of increasing concentration (x-axis) of Tumstatin, Tum-1, Tum-2, Tum-3 and Tum-4 on the cell viability (y-axis) of C-PAE cells (FIG. 34A) and WM-164 cells (FIG. 34B). Each point represents the mean ±the standard error of the mean for triplicate wells.
On the technique in general: Tetrazolium assays rely on reduction of a dye to a coloured formazan, in cell work by metabolically active cells.

For another assay, the system named is FLIP. Briefly: FLIP protein levels in HUVEC. The class given is cell-based, human. Conditions: one hour after treatment, persisting up to 24 hours. As for the experimental part: FLIP Protein Levels. HUVEC cells were treated as for the ERK assay, supra, and harvested at 0, 1, 3, 6, and 24 hours. FLIP protein levels in serum treated HUVEC cells and serum+Canstatin-treated HUVEC cells were quantified using anti-FLIP antibody (Sata, M. et al., 1998, J. Biol. Chem. 273:33103-6) and normalized for protein loading using levels of vinculin and plotted as a percentage of the 0 hour time points.

In assay [1] the test system is CD31-positive tumor vasculature. Briefly: CD31 immunohistochemistry of xenograft tumors. The conditions noted are these: mouse, in vivo. The protocol:
Mice from the tumor studies were sacrificed after 10-20 days of treatment. Tumours were excised and fixed in 4% paraformaldehyde. Tissues were paraffin embedded and 3 μm sections were cut and mounted on glass slides. Sections were deparaffinized, rehydrated and treated with […] protease XXIV (SIGMA Chemical Co., St. Louis, Mo., USA) at 37° C. for 5 minutes. Digestion was stopped with 100% ethanol and sections were air dried and blocked with 10% rabbit serum. […]
CD31 immunostaining was used to determine the intra-tumoral microvessel density (MVD) in frozen histological sections of the PC-3 tumor xenografts, using a rat anti-mouse […] monoclonal antibody (PharMingen, San Diego, Calif., USA) with a standard streptavidin-biotin-peroxidase detection system (Vectastain ABC Elite Kit, Vector Labs, Burlingame, Calif., USA). […] MVD was assessed by scanning the tumor at low power magnification, then identifying three areas at the tumor periphery which contained the maximum number of discrete microvessels, and then counting individual microvessels on a 40× field. The mean microvessel density was compared among treatment groups and analyzed using the Student's t-test.

B1: endostatin: tumor associated angiogenesis inhibitor used as comparator (protein, UniProt P39060 1572-1754, looked up)
Endostatin: HSHRDFQPVLHLVALNSPLSGGMRGIRGADFQCFQQARAVGLAGTFRAFLSSRLQDLYSIVRRADRAAVPIVNLKDELLFPSWEALFSGSEGPLKPGARIFSFDGKDVLRHPTWPQKSVWHGSDPNGRRLTESYCETWRTEAPSATGQASSLLGGRLLGQSAASCHHAYIVLCIENSFMTASK
modifications: Endostatin
Take B1: the “inhibition of protein synthesis” value in the assay on HUVECs is given as “did not inhibit protein synthesis”. For the same molecule, in the assay with PC-3 tumors (20 mg/kg b.i.d., bolus injection), the tumor growth inhibition entry was “no significant tumor growth inhibition”.

B2: Tumstatin-44-131: residues 44 to 131 of full-length Tumstatin (SEQ ID NO:33) (protein)
chain: FSFLFVQGNQRAHGQDLGTLGSCLQRFTTMPFLFCNVNDVCNFASRNDYSYWLSTPALMPMNMAPITGRALEPYISRCTVCEGPAIAI
modifications: Tumstatin-45-132 (amino acids 45-132 of SEQ ID NO10)
With B2, the tumor growth inhibition turned out to be 74.1% in the assay on PC-3 tumors (1 mg/kg i.p. b.i.d., 20 days) and 70.1% in the assay with PC-3 tumors (continuous delivery via Alzet mini-pump, 1 mg/kg over 24 hours).

B3: Tumstatin: NC1 domain of the α3 chain of type IV collagen, residues 1-244 (SEQ ID NO:10) (protein, listed as Homo sapiens)
chain: GLKGKRGDSGSPATWTTRGFVFTRHSQTTAIPSCPEGTVPLYSGFSFLFVQGNQRAHGQDLGTLGSCLQRFTTMPFLFCNVNDVCNFASRNDYSYWLSTPALMPMNMAPITGRALEPYISRCTVCEGPAIAIAVHSQTTDIPPCPHGWISLWKGFSFIMFTSAGSEGTGQALASPGSCLEEFRASPFLECHGRGTCNYYSNSYSFWLASLNPERMFRKPIPSTVKAGELEKIISRCQVCMKKRH
Regarding B3, the “fold increase in Caspase-3 activity” value in the assay with Caspase-3 in C-PAE cells was found to be 1.6 fold.

B4: Tum-4: residues 181 to 244 of Tumstatin (SEQ ID NO:25) (protein)
chain: EFRASPFLECHGRGTCNYYSNSYSFWLASLNPERMFRKPIPSTVKAGELEKIISRCQVCMKKRH
modifications: Tum-4 (amino acids 181-244 of SEQ ID NO10)
For the molecule B4, in the assay on WM-164 cells, the “effect on viability of WM-164 melanoma cells” value was “decreased the viability”.

B5: Canstatin: NC1 domain of the α2 chain of Type IV collagen (SEQ ID NO:6) (protein, listed as Homo sapiens)
chain: VSIGYLLVKHSQTDQEPMCPVGMNKLWSGYSLLYFEGQEKAHNQDLGLAGSCLARFSTMPFLYCNPGDVCYYASRNDKSYWLSTTAPLPMMPVAEDEIKPYISRCSVCEAPAIAIAVHSQDVSIPHCPAGWRSLWIGYSFLMHTAAGDEGGGQSLVSPGSCLEDFRATPFIECNGGRGTCHYYANKYSFWLTTIPEQSFQGSPSADTLKAGLIRTHISRCQVCMKNL
Take B5: the FLIP protein levels entry in the assay with FLIP is “decrease in FLIP protein levels”. The “CD31 staining of tumor vasculature, treated vs control” value in assay [1] is “decrease in CD31-positive vasculature”.
